Drawing on the Immune Epitope Database (IEDB), this text covers Kd for four sequences.

A word on the pKd: it is the negative decadic logarithm of the Kd, by convention in mol/L. Lower therefore signals a high Kd.

The target of experiment [1] is HLA-A*01:01. The experiment can be described thus: IEDB peptide-MHC binding, purified MHC/direct/fluorescence; filed as Kd, often an IC50 or EC50 that approximates it; ≥ and ≤ were set here for values at or beyond the usual limits of such assays. The conditions noted are these: source organism: Salmonella enterica.
The target of experiment [2] is HLA-A*02:01. The experiment is described as above. The conditions noted are these: source organism: Salmonella enterica.
Experiment [3] has as its target HLA-A*03:01. The description is as above. As to conditions: source organism: Salmonella enterica.
Experiment [4] has as its target HLA-A*11:01. The description is as above. The conditions noted are these: source organism: Salmonella enterica.
The target in experiment [5] is HLA-A*26:01. The experiment is described as above. As to conditions: source organism: Salmonella enterica subsp. enterica serovar Typhimurium str. LT2.
The target in another experiment is HLA-A*26:02. The experiment is described as above. As to conditions: source organism: Salmonella enterica subsp. enterica serovar Typhimurium str. LT2.
Experiment [6] deals with HLA-A*31:01. The description is as above. The conditions noted are these: source organism: Salmonella enterica.
The target of the next experiment is HLA-B*08:02. The experiment is described as above. As to conditions: source organism: Salmonella enterica subsp. enterica serovar Typhimurium str. LT2.
A further experiment has as its target HLA-B*15:09. The description is as above. The conditions noted are these: source organism: Salmonella enterica subsp. enterica serovar Typhimurium str. LT2.
A further experiment has as its target HLA-B*15:17. The description is as above. As to conditions: source organism: Salmonella enterica.
The target in experiment [7] is HLA-B*27:05. The description is as above. As to conditions: source organism: Salmonella enterica.
The target in the next experiment is HLA-B*38:01. The description is as above. As to conditions: source organism: Salmonella enterica subsp. enterica serovar Typhimurium str. LT2.
Experiment [8] addresses HLA-B*40:01. The description is as above. The conditions noted are these: source organism: Salmonella enterica.
The next experiment concerns the target HLA-B*46:01. The experiment is described as above. As to conditions: source organism: Salmonella enterica.
In a further experiment the target is HLA-B*48:01. The experiment is described as above. As to conditions: source organism: Salmonella enterica.
The target in the next experiment is HLA-B*57:01. Described as above. As to conditions: source organism: Salmonella enterica.
For experiment [9], the target named is HLA-B*58:01. The description is as above. The conditions noted are these: source organism: Salmonella enterica.
A further experiment deals with HLA-A*69:01. The experiment can be described thus: IEDB peptide-MHC binding, purified MHC/competitive/fluorescence; filed as Kd, often an IC50 or EC50 that approximates it; ≥ and ≤ were set here for values at or beyond the usual limits of such assays.
For a further experiment, the target named is HLA-B*08:01. The experiment is described as above.
In a further experiment the target is HLA-B*15:01. Described as above.
Another experiment concerns the target HLA-A*32:15. The experiment is described as above. As to conditions: source organism: Shigella flexneri 5 str. 8401.
In a further experiment the target is HLA-A*68:23. Described as above. The conditions noted are these: source organism: Shigella flexneri 5 str. 8401.
For another experiment, the target named is HLA-B*15:42. The experiment is described as above. The conditions noted are these: source organism: Shigella flexneri 5 str. 8401.
For experiment [10], the target named is HLA-B*40:01. The experiment is described as above.
For another experiment, the target named is HLA-B*40:13. The description is as above. As to conditions: source organism: Shigella flexneri 5 str. 8401.
For a further experiment, the target named is HLA-B*45:06. The description is as above. As to conditions: source organism: Shigella flexneri 5 str. 8401.
The target of the next experiment is HLA-B*83:01. Described as above. As to conditions: source organism: Shigella flexneri 5 str. 8401.
Experiment [11] deals with HLA-A*01:01. The experiment is described as above. The conditions noted are these: source organism: Acinetobacter baumannii.
Experiment [12] has as its target HLA-A*02:01. The experiment is described as above.
The target of experiment [13] is HLA-A*03:01. Described as above. As to conditions: source organism: Acinetobacter baumannii.
The target of experiment [14] is HLA-A*11:01. The description is as above. The conditions noted are these: source organism: Acinetobacter baumannii.
For a further experiment, the target named is HLA-A*24:02. Described as above.
In experiment [15] the target is HLA-A*26:01. The experiment is described as above. The conditions noted are these: source organism: Acinetobacter baumannii.
In experiment [16] the target is HLA-A*31:01. Described as above. As to conditions: source organism: Acinetobacter baumannii.
A further experiment deals with HLA-B*07:02. The description is as above. The conditions noted are these: source organism: Acinetobacter baumannii.
The next experiment deals with HLA-B*18:01. The experiment is described as above. As to conditions: source organism: Acinetobacter baumannii.
In experiment [17] the target is HLA-B*27:05. Described as above. The conditions noted are these: source organism: Acinetobacter baumannii.
A further experiment deals with HLA-B*35:01. Described as above. As to conditions: source organism: Acinetobacter baumannii.
Experiment [18] concerns the target HLA-B*58:01. The description is as above. The conditions noted are these: source organism: Acinetobacter baumannii.
The mark [19] stands for this setting: source organism: Salmonella enterica subsp. enterica serovar Typhi.
Setting [20] is: source organism: Acinetobacter baumannii.

pKd: −log10 of the molar value.

Regarding EIIFYHPTF, the pKd is at most 4.70 with HLA-A*01:01 [1]; at most 4.70 with HLA-A*02:01 [2]; at most 4.70 with HLA-A*03:01 [3]; at most 4.70 with HLA-A*11:01 [4]; 6.10 with HLA-A*26:01 [5]; at least 9.00 with HLA-A*26:02. Further, the negative logarithm of the Kd (pKd) with HLA-A*31:01 [6] was at most 4.70; in the experiment with HLA-B*08:02, at most 4.70; in the experiment with HLA-B*15:09, at most 4.70; in the experiment with HLA-B*15:17, 6.97; with HLA-B*27:05 [7] it was at most 4.70; in the experiment with HLA-B*38:01, at most 4.70. In addition, the negative-log Kd (pKd) with HLA-B*40:01 [8], with HLA-B*46:01, with HLA-B*48:01, with HLA-B*57:01, with HLA-B*58:01 [9] and in the experiment with HLA-A*69:01 (setting [19]) was at most 4.70 in each case. Besides, the negative logarithm of the Kd (pKd) with HLA-B*08:01 (setting [19]) and with HLA-B*15:01 (setting [19]) was at most 4.70 each time.

Consider HEWKIPLLI, for which the pKd in the experiment with HLA-A*32:15 is 5.58; with HLA-A*68:23 it was 6.56; in the experiment with HLA-B*15:42, at most 5.30; with HLA-B*40:01 [10] (source organism: Shigella flexneri 5 str. 8401) it was 8.01; with HLA-B*40:13, 7.96; in the experiment with HLA-B*45:06, at most 5.30. In the experiment with HLA-B*83:01, the pKd was 4.98.

With SIYAGNTPK, the negative-log Kd (pKd) is at most 4.70 with HLA-A*01:01 [11]; at most 4.70 with HLA-A*02:01 [12] (setting [20]); 7.41 with HLA-A*03:01 [13]; 7.82 with HLA-A*11:01 [14]; at most 4.70 with HLA-A*24:02 (setting [20]); at most 4.70 in the experiment with HLA-A*26:01 [15]. For the same sequence, the negative-log Kd (pKd) was 7.46 with HLA-A*31:01 [16]; at most 4.70 with HLA-A*69:01 (setting [20]); at most 4.70 with HLA-B*07:02; at most 4.70 in the experiment with HLA-B*08:01 (setting [20]); at most 4.70 with HLA-B*15:01 (setting [20]); at most 4.70 with HLA-B*18:01. Also, the pKd with HLA-B*27:05 [17], with HLA-B*35:01, in the experiment with HLA-B*40:01 [10] (setting [20]) and in the experiment with HLA-B*58:01 [18] was at most 4.70 in each case.

In the case of TLMFGFFGF, the results for the pKd with HLA-A*02:01 [12] (setting [19]) and in the experiment with HLA-A*24:02 (setting [19]) were 5.40 and at most 5.30, respectively.
